Source: the nanobody polyreactivity screen of Harvey et al. (2022)

test: yeast display, Sf9 membrane polyspecificity reagent, FACS + sequencing; frameworks hold sequencing errors
In short: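 A synthetic nanobody library was expressed on Saccharomyces cerevisiae BJ5465 by galactose induction for 36–48 hours. The library was stained for 1 hour at 4 °C with 10% biotinylated, detergent-solubilized Sf9 membrane reagent and enriched with streptavidin microbeads before FACS. Low and high (top ~1%) gates were set on anti-HA fluorescence for expression and streptavidin fluorescence for reagent binding, and each polyreactivity label reflects the gate of origin.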

Row | Sequence | polyreactivity (PSR sort gate)
1 | QVQLVESGGGLVQAGVSLRLSCAASGRTFGYNAMGWYRQAPGKERVVVAAITIGGSTNYADSVKGRFTISRDNAKNTVYLQMNSLKPEDTAVYYCAAYDTLLYWVEFYYWGQGTQVTVSS | low polyreactivity
2 | QVQLVESGGGLVQAGVSLRLSCAASGRTFGYYTMGWSRQAPGKERELVAGISSAGSTNYADSVKGRFTISRDNAKNTVYFQMNSLKPADTAVYDCAARTYKVIQNNSWETYYYWGQGTQVTVSS | high polyreactivity
3 | QVQLVESGGGLVQAGVSLRLSCAASGRTFRSNAMGWYRQSPGKERELVAAITASGGNTYYADSVKGRFTISRDNAKNTVYLQMNSLKPEDTAVYYCAAVSRYNYGTNPYYYWGQGTQVTVSS | high polyreactivity
4 | QVQLVESGGGLVQAGVSLRLSCAASGRTFTSYPMGLYRQAPGKERELVAAISSRGGSTSYADSVKGRLTISRDNANNTVYLQMNSLKEEDTAVYYCARRIRQQRFGGNYWGQGTQVTVSS | high polyreactivity
5 | QVQLVESGGGLVQAGVSLRLSCAASGRTFVHYTMGWSRQSPGKERELVATISTSGGSTSYADSVKGRFTISRDNAKNTVYLQMNSLKPEDTAVYYCAARWYFPDRVKYDYWGQGTQVSVSS | low polyreactivity
6 | QVQLVESGGGLVQAGVSLRLSCAASGSTFSVNAMGWYRQAPGKERELVAAITYSGGSTYYADSVKGRFTISRDNAKNTVYLQMNSLKPEDTAVYYCAAEGGSALDDDYWGQGTQVTVSS | high polyreactivity
7 | QVQLVESGGGLVQAGVSLRLSCAASGSTFTSYAMGWYRQAPGKERELVAAINDSAGSTYYADSVKGRFTISRDNAKNTAYLQKNSLKPDDTAVYYCAADGYNRQYVTYYYWGQGTQVTVSS | low polyreactivity
8 | QVQLVESGGGLVQAGVSLRLSCAASGSTFTYYAMGWYRQAPGKERELVAAITNSGGSTYYAVSVKGRFTISRDNAKNTVYLQMNSLKPEDTAVYYCAATRVDSDDRTRFYYWGQGTQVTVSS | high polyreactivity
9 | QVQLVESGGGLVQAGVSLRLSCAASGSTFVGYAMGWYRQAPGKERELVAAISYSGGSTYYADSVKGRFTISRDNAKNTVYLQMHSLKPEDTAVYYCAAEWSRHYYYGPRYDYWGQGSQVTVSS | low polyreactivity
10 | QVQLVESGGGLVQAGVSLRLSCAASGSTLVYYAMGWYRQAPGKERELVAAITRSGDNTYYADSVKGRFTISRDNAKNTVYLQMNSLKPEDTAVYYCAVKKRVYSGDYWGQGTQVTVSS | high polyreactivity
11 | QVQLVESGGGLVQAGVSLRLSCAASGSTYNAMGWYRQAPGKEREFVAAITSSGGSTYYADSVKGRFTISRDNAKNTVYLHMNSLNPEDTAVYYCASSYWTAWYQLDYWGQGTQVTVSS | high polyreactivity
12 | QVQLVESGGGLVQAGVSLRLSCASSGSIFPEYVMAWYRQAPGKERELVAAISWSGGSTYYADSVKGRITISRDNAKNTVYFQMNCLKQEATAVYYCNRVPSWRIDYDYWGQGTLVTVSS | low polyreactivity
13 | QVQLVESGGGLVQAGVSLRLSCDASGSIFDPYAMGWFRQAPGKEMELVAAITASGSSTYYADSVKGRFTISRDNAKNTVYLQMNSLKPEDTAVYYCAADRANWEYLLSWLGYDYWGQGTQVTVSS | low polyreactivity
14 | QVQLVESGGGLVQAGVSLRLSFAASGSTFRGYAMGWYRQAPGKEREVVAAISSRGARTHYAHSVKGRFTISRDNAKNTVYLQMYSLKPVDTAVNYCNKRQVFVSTGEYEFDYCGQGTQVTVSS | low polyreactivity
15 | QVQLVESGGGLVQAGVSLRVSCAASGRTFSRYTMGWYRQAPGKEREMVAAISKRGGSTYYADSVKGRFTISRDNAKNTVYLQRNSLKPEETAVYYCNAYGLVGLVGVIMYYWGQGTQVTVSS | high polyreactivity
16 | QVQLVESGGGLVQARCSLRLSCAASGSTFLRYAMGWYRQAPGKERELVATISSSDDGTYYADSVKGRFTISRDIAKNTVYLQMNSLKPEDTAVYYCAARSWYLYYYWGQGTQVTVSS | low polyreactivity
17 | QVQLVESGGGLVQARGSLRLICAASGYIFRGYAMGWYRQAPGKERELVASISRTGVSTYYADSVKGRFTISRDNAKNTVYLQMNSLKPEDTAVYYCAADYYYWYYKSGYDYWGQGTQVTVSS | high polyreactivity
18 | QVQLVESGGGLVQARGSLRLSCAASGFTFDTYAMGSYRQAPGKARELVAVLSRGGSTYYADSVKGRFTISRDKAKNTVYLQMNSLKPEDPAVYFCNAKHKQGRKQFKLGAGYYWGQGTQVTVSS | high polyreactivity
19 | QVQLVESGGGLVQARGSLRLSCAASGFTFYSNAMGWYRQAPGKERELVAVINSDDDSTYYADSVKGRFTISRDNAKNTVYLQMNSLKPEDTAVYYCNKVWRVGKYPYSDRYYFGGGYWGQGTQVTVSS | high polyreactivity
20 | QVQLVESGGGLVQARGSLRLSCAASGLTFRRNTMGWYRQAPGKERELVATITSGGSTNYADSVKGRFTISRDNAKNTVYLQMISLKPEDTAVYYCAARTTYITNWVYRHTYTYYYWGQGTQVTVSS | high polyreactivity
21 | QVQLVESGGGLVQARGSLRLSCAASGLTFYYYVMGWYRQAPGKERELVAAISYSGGRTYYADSVKGRFTISRDNAKNTVYLQMNSLKPEDTAVYYCAAQSRYGGKFYYWGQGTQVTVSS | high polyreactivity
22 | QVQLVESGGGLVQARGSLRLSCAASGRIFSYYAMGWYRQAPGKERELVATISKSGGSTYYADSVKGRFTISRDNAKNTVYLQMNSLKPEDTALYYCAAVGPYRWYDYWGQGTQVTVSS | high polyreactivity

Row | Sequence | polyreactivity (PSR sort gate)
23 | QVQLVESGGGLVQARGSLRLSCAASGRNFADYAMGWYRQAPGKERELVAAIDWSDGSTKYADSVKGRFTISRDNAKNTVYLQINSLKPEDTAVYYCGADYWPRDGLGWWYDYWGQGTQVTVSS | low polyreactivity
24 | QVQLVESGGGLVQARGSLRLSCAASGRTFVDYVMGWYRQAPGKERELVAAITYSGGSTSYADSVKGRFTISRDYAKNNFNLQMNSLKPEDTAVYYCNADGDHPYSRNDYWGQGTQVTVSS | low polyreactivity
25 | QVQLVESGGGLVQARGSLRLSCAASGRTYAGYAMGWYRQAHGKERELVASITSGGRTYYADSVKGRFTISRDNAKNTVYLQMNSLKPEDTAVYYCNKVYKSYYWGGYDWGQGTQVTVSS | high polyreactivity
26 | QVQLVESGGGLVQARGSLRLSCAASGSIFFRYTMGWYRPAPGKEWELVATITGSGSSTTYADSVKGRFTISRDNAKNTVYLQMNSLKPEDTAVSYCAAADIIDHSFPYDYWGQGTQVTVSS | low polyreactivity
27 | QVQLVESGGGLVQARGSLRLSCAASGSIFTYNAMGWYRQAPGKERELVAAIDYSGGSTYYADSVKGRFTISRDNAKNTVYLQMKSLKPEDTAVYYCAAPWVPYPGYSLYGYDYWGQGTQVSVSS | low polyreactivity
28 | QVQLVESGGGLVQARGSLRLSCAASGSIFYNNALGWYRQAPGKERELVAAISGSGDSTYYADSVKGRFTISRENAKNTVYLQMNSLKPEDTAVYYCNATPYVLWWSDMDYWGQGTQVTVSS | high polyreactivity
29 | QVQLVESGGGLVQARGSLRLSCAASGSILDYYVMGWYRQAPGKERELVAAIRGGGSTYYADSVKGRFTISRDNAKNTVYLQMNSLKPEDTAVYYCAKDSQTARDFDYWGQGTQVTVSS | low polyreactivity
30 | QVQLVESGGGLVQARGSLRLSCAASGSISVYNAMGWYRQAPGKERELVAAISWSGGRTSYADSVKGRFTISRDNAKNTVYLQMNSLKPEDTAVYYCAADELTVLWDEDYWGQGTQVTVSS | low polyreactivity
31 | QVQLVESGGGLVQARGSLRLSCAASGSTFDYYAMGWYRQAPGKEWELVAAIDTSGDDTYYADSVKGRFTISRDNAKNTVYLQMNSLKPEDTAVYYCAADFPYDEVDYWGQGTQVTVSS | low polyreactivity
32 | QVQLVESGGGLVQARGSLRLSCAASGSTFEHNAMGWYRQGPGKERELVAAISYSGGRTYYADSVKGRFTISRDNAKNTVYLQMNSLKTEDTAVYYCAAPYYSWPYYYWGLGTQVTVSS | high polyreactivity
33 | QVQLVESGGGLVQARGSLRLSCAPSGRTFQLNAMGWYRQAPGKERQLFAAITVSGGGKYYADSVKGRFTISRDYAKNTVYFQMNSLKPEDTAVYYCNAKYKTRGRKSLYDYWGQGTQVTVSS | high polyreactivity
34 | QVQLVESGGGLVQARGSLRLSCASSGRIFDNYAMGWYRQAPGKERELVAAITYIDSGTYYADSVKGRFTISRDNAKNTVYLQMNSLKPEDTAVFYCAVGLNSDSKRKTQKYGYWGQGTQVTVSS | low polyreactivity
35 | QVQLVESGGGLVQARGSLRLSCASSGSIFTDNGMGWYRQPPGKESDLVAAISWRGGTYYADSVKGRFTISRDNAKNTVYLQMNSLKPEDSAVYYSAADVLRISTRLFRGPGFDSWGQGTQVTVSS | low polyreactivity
36 | QVQLVESGGGLVQARGSLRLSSAASGSTFSYYAMGGYRQEHGTETQLVATISKRGGSTYYADSVKGRFTISRDNAKNTVYLQMNSLKPEDTAVYYCAAEFLVRYGYDYWGQGTQVTVSS | high polyreactivity
37 | QVQLVESGGGLVQAVASIRLSCAASGITIYLYAKGWSRQAPGKARELVATITSRSGSTYYADSVKGRFTISRDNAKNTVYLQMNSLKPEDTAVYYCAAKYPRYLYGYWGQGTQVTVSS | high polyreactivity
38 | QVQLVESGGGLVQAVCSLRLSCAASGIIFVYYVMGWYRQAPGKERELVASIDGSGGSTNYADSVKGRFTISRDNAKNTVYLQMNSLKPEDTAVYYCAASGRYDYDYWGQGTQVTVSS | low polyreactivity
39 | QVQLVESGGGLVQAVGSHRLSCAASGRIFGNNVMGWYRQEPGKERELVAANTFSGTSTYYADSVKGRFTISRDNAKNTVYLQMNSLKPEDTAVYYCAKYRYADYYSPGYDYWGQGTQVTVSS | low polyreactivity
40 | QVQLVESGGGLVQAVGSLLLSCAASGSIFRVYAMGWSRQAPGKERELVAAISVSGSSTYYADSVKGRFTISRDNAKNTVYFQMNCLIPEDTAVYYCATKQRRGYWGYITAYARYYWGQGTQVTVSS | high polyreactivity
41 | QVQLVESGGGLVQAVGSLRLICDASGRIFYGYAMGWYRQAPGTERELVAANTYIGGTYYADSVKGRFTISRDNAKNTVDFLMNSVKPEDTSVYYWATEPFYNYGYFTYPYWYDYWGQGSQVTVSS | low polyreactivity
42 | QVQLVESGGGLVQAVGSLRLSCAASGFIFSYYAMGWYRQAPGKERELVAAISRSGSITYYADSVKGRFTISRDNAKNTVYLQMNRLKPEDTAVYYCAARYWRRGSSGRLNYWGQGTQVTVSS | high polyreactivity
43 | QVQLVESGGGLVQAVGSLRLSCAASGFIFYRNVMGWYREAPGKERELVAAISGSGGRTYYADSVKGRFTISRDNAKNTVYLQLNSLKPEDTAVYDCAADASLEGDYWGQGTQVTVSS | high polyreactivity
